From IntAct's records for PubMed 29039417

B1: Isoform 2 of Bardet-Biedl syndrome 7 protein (Homo sapiens), Q8IWZ6-2 (parent)
chain: MDLILNRMDYLQVGVTSQKTMKLIPASRHRATQKVVIGDHDGVVMCFGMKKGEAAAVFKTLPGPKIARLELGGVINTPQEKIFIAAASEIRGFTKRGKQFLSFETNLTESIKAMHISGSDLFLSASYIYNHYCDCKDQHYYLSGDKINDVICLPVERLSRITPVLACQDRVLRVLQGSDVMYAVEVPGPPTVLALHNGNGGDSGEDLLFGTSDGKLALIQITTSKPVRKWEIQNEKKRGGILCIDSFDIVGDGVKDLLVGRDDGMVEVYSFDNANEPVLRFDQMLSESVTSIQGGCVGKDSYDEIVVSTYSGWVTGLTTEPIHKESGPGEELKINQEMQNKISSLRNELEHLQYKVLQERENYQQSSQSSKAKSAVPSFGINDKFTLNKDDASYSLILEVQTAIDNVLIQSDVPIDLLDVDKNSAVVSFSSCDSESNDNFLLATYRCQADTTRLELKIRSIEGQYGTLQAYVTPRIQPKTCQVRQYHIKPLSLHQRTHFIDHDRPMNTLTLTGQFSFAEVHSWVVFCLPEVPEKPPAGECVTFYFQNTFLDTQLESTYRKGEGVFKSDNISTISILKDVLSKEATKRKINLNISYEINEVSVKHTLKLIHPKLEYQLLLAKKVQLIDALKELQIHEGNTNFLIPEYHCILEEADHLQEEYKKQPAHLERLYG
partner: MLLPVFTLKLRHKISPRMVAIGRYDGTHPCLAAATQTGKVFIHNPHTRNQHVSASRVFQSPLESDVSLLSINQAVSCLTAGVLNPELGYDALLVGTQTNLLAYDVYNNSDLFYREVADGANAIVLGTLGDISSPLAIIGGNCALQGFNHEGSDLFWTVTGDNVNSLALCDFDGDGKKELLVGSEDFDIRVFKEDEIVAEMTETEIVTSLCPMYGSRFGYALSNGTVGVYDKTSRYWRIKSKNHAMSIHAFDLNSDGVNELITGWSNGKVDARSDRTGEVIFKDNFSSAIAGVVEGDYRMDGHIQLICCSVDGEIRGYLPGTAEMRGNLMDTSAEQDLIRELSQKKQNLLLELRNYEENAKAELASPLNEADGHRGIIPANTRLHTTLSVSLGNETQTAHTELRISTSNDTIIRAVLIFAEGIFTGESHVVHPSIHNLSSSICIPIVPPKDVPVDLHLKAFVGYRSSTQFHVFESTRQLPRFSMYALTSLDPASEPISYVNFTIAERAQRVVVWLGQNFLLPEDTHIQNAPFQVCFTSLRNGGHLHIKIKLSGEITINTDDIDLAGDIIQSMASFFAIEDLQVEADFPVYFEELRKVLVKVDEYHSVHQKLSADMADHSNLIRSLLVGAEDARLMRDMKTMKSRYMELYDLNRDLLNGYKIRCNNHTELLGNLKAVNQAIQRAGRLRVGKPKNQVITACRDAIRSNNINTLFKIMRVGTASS

Variants of: B1
Settings: with bbs2_human BBS2, Q9BXC9
With Y354E the “effect of a mutation on the interaction” value was “with no effect”. In the case of Q358A, the “effect of a mutation on the interaction” value is reported as “with no effect”. In the case of Q358E, the “effect of a mutation on the interaction” value is reported as “with no effect”. Q358K was tested, and the “effect of a mutation on the interaction” value was “with no effect”. In the case of Q336K, the “effect of a mutation on the interaction” value is reported as “with no effect”. In the case of Q336E, the “effect of a mutation on the interaction” value is reported as “with no effect”. For Q336A, the “effect of a mutation on the interaction” value was “with no effect”. S343E was tested, and the “effect of a mutation on the interaction” value was “with no effect”. For S343K, the “effect of a mutation on the interaction” value was “with no effect”. S343A was tested, and the “effect of a mutation on the interaction” value was “with no effect”. With N362A the “effect of a mutation on the interaction” value was “with no effect”. In the case of N362E, the “effect of a mutation on the interaction” value is reported as “with no effect”. For N362K, the “effect of a mutation on the interaction” value was “with no effect”. H351K was tested, and the “effect of a mutation on the interaction” value was “with no effect”. H351A was tested, and the “effect of a mutation on the interaction” value was “with no effect”. With H351E the “effect of a mutation on the interaction” value was “with no effect”. For G329E, the “effect of a mutation on the interaction” value was “with no effect”. With G329K the “effect of a mutation on the interaction” value was “with no effect”. G329A was tested, and the “effect of a mutation on the interaction” value was “with no effect”. I342A was tested, and the “effect of a mutation on the interaction” value was “with no effect”. In the case of I342E, the “effect of a mutation on the interaction” value is reported as “with no effect”. With I342K the “effect of a mutation on the interaction” value was “with no effect”. K341E was tested, and the “effect of a mutation on the interaction” value was “with no effect”. K341A was tested, and the “effect of a mutation on the interaction” value was “with no effect”. For E337K, the “effect of a mutation on the interaction” value was “with no effect”. In the case of E337A, the “effect of a mutation on the interaction” value is reported as “with no effect”. For L349A, the “effect of a mutation on the interaction” value was “with no effect”. L349K was tested, and the “effect of a mutation on the interaction” value was “with no effect”. In the case of L349E, the “effect of a mutation on the interaction” value is reported as “with no effect”. With P328E the “effect of a mutation on the interaction” value was “with no effect”. In the case of P328A, the “effect of a mutation on the interaction” value is reported as “with no effect”. In the case of P328K, the “effect of a mutation on the interaction” value is reported as “with no effect”. With E361A the “effect of a mutation on the interaction” value was “with no effect”. For E361K, the “effect of a mutation on the interaction” value was “with no effect”. With V356K the “effect of a mutation on the interaction” value was “with no effect”. With V356A the “effect of a mutation on the interaction” value was “disrupting interaction strength”. For V356E, the “effect of a mutation on the interaction” value was “with no effect”. For S326K, the “effect of a mutation on the interaction” value was “with no effect”. S326A was tested, and the “effect of a mutation on the interaction” value was “with no effect”. S326E was tested, and the “effect of a mutation on the interaction” value was “with no effect”. In the case of K355A, the “effect of a mutation on the interaction” value is reported as “with no effect”. In the case of K355E, the “effect of a mutation on the interaction” value is reported as “with no effect”. With L345K the “effect of a mutation on the interaction” value was “with no effect”. In the case of L345A, the “effect of a mutation on the interaction” value is reported as “with no effect”. L345E was tested, and the “effect of a mutation on the interaction” value was “with no effect”. With E359A the “effect of a mutation on the interaction” value was “with no effect”. For E359K, the “effect of a mutation on the interaction” value was “with no effect”.
